Measurements reported in patent publication US20150344570A1 (published 2015).

How the values were obtained:
[1] = target: T1, FcγRIIb extracellular domain with C-terminal His tag (human, UniProt P31994 43-217); assay: SPR (Biacore), relative binding, HeCon Ab = 100
T1 construct: extracellular domain; Expressed in FreeStyle293 cells; analyte in the SPR assay; also called FcgRIIb; 2b
T1 sequence (looked up): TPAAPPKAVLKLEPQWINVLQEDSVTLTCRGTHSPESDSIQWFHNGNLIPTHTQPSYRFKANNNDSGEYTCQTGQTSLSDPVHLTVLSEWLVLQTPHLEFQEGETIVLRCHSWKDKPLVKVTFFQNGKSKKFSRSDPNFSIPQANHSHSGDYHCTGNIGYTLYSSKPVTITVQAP

[2] = target: T2, FcγRIa extracellular domain with C-terminal His tag (human, UniProt P12314 16-292); assay: SPR (Biacore), relative binding, HeCon Ab = 100
T2 construct: extracellular domain; Expressed in FreeStyle293 cells; analyte in the SPR assay; also called FcgRI; 1a
T2 sequence (P12314 16-292): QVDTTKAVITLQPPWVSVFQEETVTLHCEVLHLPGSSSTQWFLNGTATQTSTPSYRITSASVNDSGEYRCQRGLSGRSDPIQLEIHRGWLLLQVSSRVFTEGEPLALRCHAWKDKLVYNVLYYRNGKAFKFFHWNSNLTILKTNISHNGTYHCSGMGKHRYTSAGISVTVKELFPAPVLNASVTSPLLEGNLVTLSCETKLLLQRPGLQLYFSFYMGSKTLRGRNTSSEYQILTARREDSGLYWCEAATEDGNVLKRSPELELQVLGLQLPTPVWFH

FcγRIIb = target: T3, FcγRIIb (human, UniProt P31994 43-217); assay: SPR (Biacore), relative binding
T3 construct: extracellular domain; also called FcgRIIb; 2b
T3 sequence (looked up): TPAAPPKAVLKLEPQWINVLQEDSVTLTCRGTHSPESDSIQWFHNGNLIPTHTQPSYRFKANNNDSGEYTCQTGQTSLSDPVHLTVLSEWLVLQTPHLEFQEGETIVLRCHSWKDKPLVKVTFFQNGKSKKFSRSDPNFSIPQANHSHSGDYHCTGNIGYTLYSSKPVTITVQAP

B1: GpH7-A5/GpH7-B3 variant E269_01G/GpL16-k0 (He Ab) (antibody, human IgG1, kappa)
heavy 1: not shown
heavy 2: not shown
light: DIVMTQSPLSLPVTPGEPASISCQASESLVHSNRNTYLHWYLQKPGQSPQLLIYKVSNRFSGVPDRFSGSGSGTDFTLKISRVEAEDVGVYYCSQNTHVPPTFGQGTKVEIERTVAAPSVFIFPPSDEQLKSGTASVVCLLNNFYPREAKVQWKVDNALQSGNSQESVTEQDSKDSTYSLSSTLTLSKADYEKHKVYACEVTHQGLSSPVTKSFNRGEC
notes: He Ab: mutation in one H chain only
He/Con_2b [1]: 51.5 % of HeCon Ab (=100)
He/Con_1a [2]: 104 % of HeCon Ab (=100)

B2: GpH7-A5/GpH7-B3 variant D265_02A/GpL16-k0 (antibody, human IgG1, kappa)
heavy 1: not shown
heavy 2: not shown
light: DIVMTQSPLSLPVTPGEPASISCQASESLVHSNRNTYLHWYLQKPGQSPQLLIYKVSNRFSGVPDRFSGSGSGTDFTLKISRVEAEDVGVYYCSQNTHVPPTFGQGTKVEIERTVAAPSVFIFPPSDEQLKSGTASVVCLLNNFYPREAKVQWKVDNALQSGNSQESVTEQDSKDSTYSLSSTLTLSKADYEKHKVYACEVTHQGLSSPVTKSFNRGEC
notes: mutation in the GpH7-B3 chain only; also called He Ab
He/Con_2b (FcγRIIb): 19.9 % of GpH7-A5/GpH7-B3/GpL16-k0

B3: GpH7-A5/GpH7-B3 variant E269_06M/GpL16-k0 (He Ab) (antibody, human IgG1, kappa)
heavy 1: not shown
heavy 2: not shown
light: DIVMTQSPLSLPVTPGEPASISCQASESLVHSNRNTYLHWYLQKPGQSPQLLIYKVSNRFSGVPDRFSGSGSGTDFTLKISRVEAEDVGVYYCSQNTHVPPTFGQGTKVEIERTVAAPSVFIFPPSDEQLKSGTASVVCLLNNFYPREAKVQWKVDNALQSGNSQESVTEQDSKDSTYSLSSTLTLSKADYEKHKVYACEVTHQGLSSPVTKSFNRGEC
notes: as for B1
He/Con_2b [1]: 46.7 % of HeCon Ab (=100)
He/Con_1a [2]: 104 % of HeCon Ab (=100)

B4: GpH7-A5/GpH7-B3 variant E269_14T/GpL16-k0 (He Ab) (antibody, human IgG1, kappa)
heavy 1: not shown
heavy 2: not shown
light: DIVMTQSPLSLPVTPGEPASISCQASESLVHSNRNTYLHWYLQKPGQSPQLLIYKVSNRFSGVPDRFSGSGSGTDFTLKISRVEAEDVGVYYCSQNTHVPPTFGQGTKVEIERTVAAPSVFIFPPSDEQLKSGTASVVCLLNNFYPREAKVQWKVDNALQSGNSQESVTEQDSKDSTYSLSSTLTLSKADYEKHKVYACEVTHQGLSSPVTKSFNRGEC
notes: as for B1
He/Con_2b [1]: 50.6 % of HeCon Ab (=100)
He/Con_1a [2]: 106 % of HeCon Ab (=100)

B5: GpH7-A5/GpH7-B3 variant E269_16H/GpL16-k0 (He Ab) (antibody, human IgG1, kappa)
heavy 1: not shown
heavy 2: not shown
light: DIVMTQSPLSLPVTPGEPASISCQASESLVHSNRNTYLHWYLQKPGQSPQLLIYKVSNRFSGVPDRFSGSGSGTDFTLKISRVEAEDVGVYYCSQNTHVPPTFGQGTKVEIERTVAAPSVFIFPPSDEQLKSGTASVVCLLNNFYPREAKVQWKVDNALQSGNSQESVTEQDSKDSTYSLSSTLTLSKADYEKHKVYACEVTHQGLSSPVTKSFNRGEC
notes: as for B1
He/Con_2b [1]: 38.5 % of HeCon Ab (=100)
He/Con_1a [2]: 106 % of HeCon Ab (=100)

B6: GpH7-A5/GpH7-B3 variant D265_10E/GpL16-k0 (He Ab) (antibody, human IgG1, kappa)
heavy 1: not shown
heavy 2: not shown
light: DIVMTQSPLSLPVTPGEPASISCQASESLVHSNRNTYLHWYLQKPGQSPQLLIYKVSNRFSGVPDRFSGSGSGTDFTLKISRVEAEDVGVYYCSQNTHVPPTFGQGTKVEIERTVAAPSVFIFPPSDEQLKSGTASVVCLLNNFYPREAKVQWKVDNALQSGNSQESVTEQDSKDSTYSLSSTLTLSKADYEKHKVYACEVTHQGLSSPVTKSFNRGEC
notes: as for B1
He/Con_2b [1]: 38.2 % of HeCon Ab (=100)
He/Con_1a [2]: 101 % of HeCon Ab (=100)

B7: GpH7-A5/GpH7-B3 variant E269_04F/GpL16-k0 (He Ab) (antibody, human IgG1, kappa)
heavy 1: not shown
heavy 2: not shown
light: DIVMTQSPLSLPVTPGEPASISCQASESLVHSNRNTYLHWYLQKPGQSPQLLIYKVSNRFSGVPDRFSGSGSGTDFTLKISRVEAEDVGVYYCSQNTHVPPTFGQGTKVEIERTVAAPSVFIFPPSDEQLKSGTASVVCLLNNFYPREAKVQWKVDNALQSGNSQESVTEQDSKDSTYSLSSTLTLSKADYEKHKVYACEVTHQGLSSPVTKSFNRGEC
notes: as for B1
He/Con_2b [1]: 45 % of HeCon Ab (=100)
He/Con_1a [2]: 103 % of HeCon Ab (=100)

B8: GpH7-A5/GpH7-B3 variant E269_15Y/GpL16-k0 (He Ab) (antibody, human IgG1, kappa)
heavy 1: not shown
heavy 2: not shown
light: DIVMTQSPLSLPVTPGEPASISCQASESLVHSNRNTYLHWYLQKPGQSPQLLIYKVSNRFSGVPDRFSGSGSGTDFTLKISRVEAEDVGVYYCSQNTHVPPTFGQGTKVEIERTVAAPSVFIFPPSDEQLKSGTASVVCLLNNFYPREAKVQWKVDNALQSGNSQESVTEQDSKDSTYSLSSTLTLSKADYEKHKVYACEVTHQGLSSPVTKSFNRGEC
notes: as for B1
He/Con_2b [1]: 44.7 % of HeCon Ab (=100)
He/Con_1a [2]: 106 % of HeCon Ab (=100)

B9: GpH7-A5/GpH7-B3 variant V266_20W/GpL16-k0 (antibody, human IgG1, kappa)
heavy 1: not shown
heavy 2: not shown
light: DIVMTQSPLSLPVTPGEPASISCQASESLVHSNRNTYLHWYLQKPGQSPQLLIYKVSNRFSGVPDRFSGSGSGTDFTLKISRVEAEDVGVYYCSQNTHVPPTFGQGTKVEIERTVAAPSVFIFPPSDEQLKSGTASVVCLLNNFYPREAKVQWKVDNALQSGNSQESVTEQDSKDSTYSLSSTLTLSKADYEKHKVYACEVTHQGLSSPVTKSFNRGEC
notes: as for B2
He/Con_2b (FcγRIIb): 71.9 % of GpH7-A5/GpH7-B3/GpL16-k0
